Source: patent US20230381350A1 (PRECIRIX N V, published 2023)

B1: HA-His6-tagged VHH B3 (VHH)
VHH: QVQLQESGGGLVQAGGSLRLSCAVSGRLFSTNAMGWYRQAPGKQRELVAGITGGDRSNYADSVKGRFTISRDNGKNTLYLQMNSLKPEDTAVYYCNFYPPIVGDYWGQGTQVTVSS
notes: also called B3 with HA-His6-tag
B2: His6-tagged VHH B1 (VHH)
VHH: DVQLVESGGGLVQPGGSLRLSCVASGRLSSSNSMAWYRQVPGKRRELVAGITGGGETNYADFVGGRFTISRDNAKNGLYLQLNGLKPEDTAAYYCNFWPPLINYWGQGTQVTVSS
notes: Purified, unlabelled; used in bio-layer interferometry; also called B1 with His6-tag

Columns and labels:
[1] = molecular target: T1, murine FAP expressed on cells (murine, UniProt P97321 1-761); assay: flow cytometry on murine FAP-transfected HEK293 cells, VHH-containing bacterial extract, anti-HA and PE-conjugated secondary detection, Δmfi against cells without VHH
T1 construct: also called murine FAP cell surface protein
T1 sequence: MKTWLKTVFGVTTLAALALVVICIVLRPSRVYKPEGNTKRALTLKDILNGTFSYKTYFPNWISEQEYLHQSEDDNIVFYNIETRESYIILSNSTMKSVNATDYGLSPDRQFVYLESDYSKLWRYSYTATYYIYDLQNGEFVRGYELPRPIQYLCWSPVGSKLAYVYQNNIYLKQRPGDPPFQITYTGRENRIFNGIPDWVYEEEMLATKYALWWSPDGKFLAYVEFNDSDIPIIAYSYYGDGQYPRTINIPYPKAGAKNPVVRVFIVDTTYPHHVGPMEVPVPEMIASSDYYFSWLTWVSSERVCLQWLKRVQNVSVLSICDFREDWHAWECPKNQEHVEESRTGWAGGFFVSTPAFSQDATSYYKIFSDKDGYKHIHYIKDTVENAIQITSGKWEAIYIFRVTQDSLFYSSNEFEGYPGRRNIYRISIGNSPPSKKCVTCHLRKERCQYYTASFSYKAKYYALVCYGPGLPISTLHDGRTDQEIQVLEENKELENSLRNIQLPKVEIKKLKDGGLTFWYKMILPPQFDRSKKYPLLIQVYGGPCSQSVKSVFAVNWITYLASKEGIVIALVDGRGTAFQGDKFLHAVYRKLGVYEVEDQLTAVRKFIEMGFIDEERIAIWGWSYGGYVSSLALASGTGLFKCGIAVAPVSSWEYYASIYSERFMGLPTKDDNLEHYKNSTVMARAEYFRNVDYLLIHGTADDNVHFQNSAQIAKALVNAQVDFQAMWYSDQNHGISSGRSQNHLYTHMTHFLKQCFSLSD
Method: The cell binding was tested by flow cytometry experiments. Per test condition 1×10⁵ to 2×10⁵ cells, washed in PBS, 0.5% BSA, were pelleted in the well of a 96-well U-bottom plate. The cell pellets were resuspended and incubated with the VHH-containing bacterial freeze-thaw extracts (diluted in PBS, 0.5% BSA). Binding of HA-His₆-tagged VHHs was detected by using mouse anti-HA.11 epitope tag (clone 16B12, Biolegend) as the primary detection antibody and PE-conjugated rat anti-mouse IgG1 (clone A85-1, BD Pharmingen) as the secondary detection antibody, with washing with PBS, 0.5% BSA in between, and finally resuspended in PBS, 0.5% BSA.
Flow cytometry was performed on a FACS Canto II (BD Biosciences). Data were analyzed using FlowJo software. Based on the forward scatter-side scatter plot a single cell gate was drawn. The median fluorescence intensity was determined on a histogram for the phycoerythrin signal of the single cells. The difference in median fluorescence intensity (A mfi) was calculated relative to a test condition without incubation of VHHs (cells+primary Ab+secondary Ab), and are shown in FIG. 3.

[2] = molecular target: T2, human FAP recombinant protein (human, UniProt Q12884 26-760); assay: ELISA, coated human FAP recombinant protein, HA-His6-tagged VHH extract, anti-HA detection
T2 construct: The protein was biotinylated with sulfo-NHS-SS-biotin for bio-layer interferometry; also called extracellular domain of human FAP with N-terminal His6-tag
T2 sequence: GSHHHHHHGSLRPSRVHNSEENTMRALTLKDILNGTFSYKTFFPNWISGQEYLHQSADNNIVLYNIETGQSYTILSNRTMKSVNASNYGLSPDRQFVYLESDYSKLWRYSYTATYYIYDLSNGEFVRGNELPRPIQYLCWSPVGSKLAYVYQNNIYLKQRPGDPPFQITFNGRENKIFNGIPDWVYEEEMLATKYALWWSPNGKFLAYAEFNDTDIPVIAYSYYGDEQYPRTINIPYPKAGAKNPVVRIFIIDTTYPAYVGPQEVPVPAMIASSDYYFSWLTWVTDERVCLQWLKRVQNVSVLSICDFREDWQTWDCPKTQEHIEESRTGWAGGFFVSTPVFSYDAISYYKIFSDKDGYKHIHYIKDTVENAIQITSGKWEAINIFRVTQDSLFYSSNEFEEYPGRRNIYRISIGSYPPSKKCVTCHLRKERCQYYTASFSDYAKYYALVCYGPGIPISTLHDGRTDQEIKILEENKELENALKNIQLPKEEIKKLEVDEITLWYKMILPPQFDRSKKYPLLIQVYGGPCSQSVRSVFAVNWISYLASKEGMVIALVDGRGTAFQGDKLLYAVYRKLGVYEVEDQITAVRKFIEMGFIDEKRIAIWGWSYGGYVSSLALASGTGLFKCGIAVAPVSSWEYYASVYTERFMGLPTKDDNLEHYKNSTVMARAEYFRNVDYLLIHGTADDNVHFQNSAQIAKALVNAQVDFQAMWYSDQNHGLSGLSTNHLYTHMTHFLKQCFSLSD
Method: (§1) The day before measurement, 0.1 μg recombinant protein at a concentration of 1 μg/mL in 100 mM NaHCO₃, pH 8.2 was coated in a 96-well ELISA plate (Nunc MaxiSorp). Per VHH clone also a blank coated well was foreseen (only buffer). The wells were overcoated with protein-free T20 (PBS) blocking buffer (Pierce). After washing with PBS, pH7.4, 0.05% Tween, VHH-containing bacterial freeze-thaw extract was added to every well. Binding of HA-His₆-tagged VHHs was detected by using mouse anti-HA.11 epitope tag (clone 16B12, Biolegend) as the primary Ab and goat anti-mouse IgG (whole molecule) alkaline phosphatase conjugate (Sigma-Aldrich) as the secondary Ab, with thorough washing with PBS, pH 7.4, 0.05% Tween in between. Signals were developed using phosphatase substrate (Sigma-Aldrich) in AP blot buffer (100 mM NaCl, 50 mM MgCl₂, 100 mM Tris, pH 9.5). The absorbance was determined at 405 nm using an absorbance microplate reader (Molecular Devices). Per clone the ratio was determined between the absorbance in the antigen-coated well versus the well without antigen.

[3] = molecular target: T3, human DPP IV recombinant protein (human, UniProt P27487 29-766); assay: ELISA on coated recombinant protein, VHH-containing bacterial extract, anti-HA detection, signal-to-background ratio
T3 construct: extracellular domain; Bought protein; also called Dipeptidyl amino-peptidase IV
Method: as §1

[4] = molecular target: T4, murine FAP recombinant protein (murine, UniProt P97321 26-761); assay: as above
T4 construct: The protein was biotinylated for bio-layer interferometry; also called extracellular domain of murine FAP with N-terminal His6-tag
T4 sequence: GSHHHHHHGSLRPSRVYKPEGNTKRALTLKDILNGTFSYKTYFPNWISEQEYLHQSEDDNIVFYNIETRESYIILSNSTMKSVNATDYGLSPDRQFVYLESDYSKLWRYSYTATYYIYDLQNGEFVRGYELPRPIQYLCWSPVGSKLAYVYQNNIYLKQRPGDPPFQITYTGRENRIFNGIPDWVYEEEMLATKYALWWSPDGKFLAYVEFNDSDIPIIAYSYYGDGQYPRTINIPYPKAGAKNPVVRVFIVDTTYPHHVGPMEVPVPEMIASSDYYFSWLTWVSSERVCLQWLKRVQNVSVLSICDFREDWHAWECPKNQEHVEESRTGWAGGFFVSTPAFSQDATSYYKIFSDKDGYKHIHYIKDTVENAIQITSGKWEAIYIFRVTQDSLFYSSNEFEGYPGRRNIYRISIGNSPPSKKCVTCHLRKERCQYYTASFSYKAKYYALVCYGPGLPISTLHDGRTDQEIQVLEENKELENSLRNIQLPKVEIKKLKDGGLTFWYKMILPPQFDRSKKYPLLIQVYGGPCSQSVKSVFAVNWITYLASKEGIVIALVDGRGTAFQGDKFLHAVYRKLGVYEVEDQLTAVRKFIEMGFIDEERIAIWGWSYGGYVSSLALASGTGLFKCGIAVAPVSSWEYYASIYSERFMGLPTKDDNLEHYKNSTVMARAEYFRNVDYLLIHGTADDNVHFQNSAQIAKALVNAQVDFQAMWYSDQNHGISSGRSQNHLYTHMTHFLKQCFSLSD
Method: as §1

[5] = molecular target: T3, human DPP IV recombinant protein; assay: ELISA, coated human DPP IV, HA-His6-tagged VHH extract, anti-HA detection
Method: as §1

[6] = molecular target: T2, human FAP recombinant protein; assay: bio-layer interferometry (Octet RED96), biotinylated human FAP on streptavidin sensor, kinetic titration, 25 °C
Method: (§2) The kinetic parameters of antigen binding by purified VHHs were determined via bio-layer interferometry with an Octet RED96 instrument (ForteBio). The assay was performed at 25° C. with shaking at 1000 rpm. Streptavidin coated SA sensors were equilibrated in assay buffer (HBS supplemented with 0.5% BSA, 0.1% Tween), before loading for 5 min with the biotinylated FAP recombinant protein at a concentration of 5 μg/ml. His₆-tagged VHHs were analyzed in a threefold serial dilution from 30 nM to 0.4 nM in assay buffer (except for VHH B3 binding murine FAP recombinant protein, for which a fivefold serial dilution from 1000 nM to 1.6 nM was employed). First the baseline was measured for 180 s in assay buffer, followed by 5 subsequent association phases of 180 s with the VHH preparations in increasing order of concentration, with 75 s intermediate dissociation phases in assay buffer in between, and a final dissociation phase in assay buffer of 30 min. In every assay a reference sensor loaded with FAP recombinant protein was included that was incubated in assay buffer during the association phases.
(§3) Binding curves were exported and analyzed using the BIAevaluation analysis software (GE Healthcare). First the y-axes of the different curves were aligned to the median of the last 5 s of the baseline measurement. Subsequently, the sensorgram of the reference sensor was subtracted from all other sensorgrams. The resulting binding curve was fitted using a general fit with the ‘kinetic titration with drift’ binding model (1:1 (antigen:analyte) model; Karlsson, R. et al (2006), Analyzing a kinetic titration series using affinity biosensors. Analytical Biochemistry 349: 136-147), with Rmax fitted global, RI local and drift set to 0.
(§4) Table 7 gives an overview of the kinetic parameters of antigen binding for His₆-tagged VHHs B1, B2, B3 and B4 (SEQ ID NO: 21-24), as determined by bio-layer interferometry with biotinylated human or murine FAP recombinant protein that was loaded on the sensor.

[7] = molecular target: T2, human FAP recombinant protein; assay: bio-layer interferometry, biotinylated human FAP on sensor
Method: as §2, with “In every assay a reference sensor loaded with FAP recombinant protein was included that was incubated in assay buffer during the association phases.” left out
Binding curves were exported and analyzed using the BIAevaluation analysis software (GE Healthcare). […]
as §4

[8] = molecular target: T4, murine FAP recombinant protein; assay: bio-layer interferometry (Octet RED96), biotinylated murine FAP on streptavidin sensor, kinetic titration, 25 °C
Method: as §2, §3, §4

T3 sequence (P27487 29-766): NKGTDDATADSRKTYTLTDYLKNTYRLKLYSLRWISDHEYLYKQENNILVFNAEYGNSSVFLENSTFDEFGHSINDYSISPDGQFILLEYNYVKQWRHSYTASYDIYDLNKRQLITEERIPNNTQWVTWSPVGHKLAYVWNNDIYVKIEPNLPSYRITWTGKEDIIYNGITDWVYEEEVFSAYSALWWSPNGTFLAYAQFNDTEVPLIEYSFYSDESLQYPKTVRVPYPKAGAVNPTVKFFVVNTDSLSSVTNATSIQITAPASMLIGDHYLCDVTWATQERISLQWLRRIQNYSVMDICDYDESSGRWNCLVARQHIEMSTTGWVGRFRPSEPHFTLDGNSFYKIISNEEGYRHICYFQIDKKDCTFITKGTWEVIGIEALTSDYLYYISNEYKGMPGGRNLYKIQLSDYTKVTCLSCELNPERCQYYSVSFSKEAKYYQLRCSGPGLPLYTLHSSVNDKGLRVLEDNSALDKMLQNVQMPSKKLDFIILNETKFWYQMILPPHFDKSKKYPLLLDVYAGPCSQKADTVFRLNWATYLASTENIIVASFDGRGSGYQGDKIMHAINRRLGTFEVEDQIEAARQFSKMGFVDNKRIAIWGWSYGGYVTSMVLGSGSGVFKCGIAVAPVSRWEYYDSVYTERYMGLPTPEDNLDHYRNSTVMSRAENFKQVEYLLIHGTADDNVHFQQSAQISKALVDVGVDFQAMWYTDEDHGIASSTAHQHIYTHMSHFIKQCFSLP

Binder	binding result [1]	signal-to-background ratio [2]	binding result [3]	binding result [4]	signal-to-background ratio [5]	Kd [6] [nM]	koff [6] [s⁻¹]	kon [6] [M⁻¹ s⁻¹]	Kd [7] [nM]	Kd [8] [nM]	koff [8] [s⁻¹]	kon [8] [M⁻¹ s⁻¹]
B1	no binding	> 25	no binding	no binding	~1							
B2						0.0378	2.7e-05	700000	< 0.05	0.742	0.0014	1.9e+06
